Patent US20210214435A1

Legend:
[1] = molecular target: human GPVI-Fc (isoform and haplotype not stated) used in the competition ELISA (human) (UniProt Q9HCN6); experiment: Competition ELISA (MSD): human GPVI-Fc preincubated with Fab, then on coated CRP-XL (competitor)
[2] = molecular target: human GPVI on the cell surface of human platelets (human) (UniProt Q9HCN6); experiment: FACS on washed human platelets from PRP (one exemplary donor), PE-conjugated detection antibody, median fluorescence
[3] = molecular target: human GPVI-Fc (isoform and haplotype not stated) used in the competition ELISA (human) (UniProt Q9HCN6); experiment: Competition ELISA (MSD): human GPVI-Fc preincubated with Fab, then on coated VitroCol (competitor)
[4] = molecular target: human GPVI-Fc (isoform and haplotype not stated) used in the competition ELISA (human) (UniProt Q9HCN6); experiment: Competition ELISA (MSD): human GPVI-Fc preincubated with Fab, then on coated rat-tail collagen (competitor)
[5] = molecular target: human GPVI on the cell surface of human platelets (human) (UniProt Q9HCN6); experiment: FACS on washed human platelets from PRP, Fab directly conjugated with PE, average + SD of 3 donors, signal given as GPVI molecules per cell

Row | Binder | IC50 [1] | Maximum inhibition at 200 nM Fab [%] [1] | EC50 (read off the curve) [2] | IC50 [3] | Maximum inhibition at 200 nM Fab [%] [3] | IC50 [4] | Maximum inhibition at 200 nM Fab [%] [4] | EC50 (read off the curve) [5]
1 | Reference Control Antibody RefFab #1 (humanized GPVI antibody of WO2011073954A2, SANOFI) (Fab, V domains shown) VH: EVQLLESGPGLVAPSGSLSITCTVSGFSLTGYGVNWVRQPPGKGLEWLGMIWGDGSTDYQSTLKSRLSISKDNSKSQVFLKMNSLRTDDTARYYCARDLPMDYWGLGTSVTVSS VL: DIQMTQSPSSLSASVGGRVTITCKASQDINKYIAWYQHKPGKGPSLLIHYTSTLQPGVPSRFSGSGSGRDYSFSISNLQPEDIATYYCLQYANLLTFGGGTKLEIKR | 10.6 nM | 100% | 1 µg/mL | 5.8 nM | 100% | 7 nM | 99% | 
2 | Fab #2 comprising a modified heavy chain constant region (Fab, V domains shown) VH: QVQLVESGGGLVKPGGSLRLSCAASGFSFSDHYMSWIRQAPGKGLEWVSSVGSEGKFIDYAASVKGRFTISRDNAKNSLYLQMNSLRAEDTAVYYCARHYREFRWHYYYFDYWGQGTLVTVSS VL: QSVLTQPPSVSGAPGQRVTISCTGSSSNIGAGYDVHWYQQLPGTAPKLLIYGNSNRPSGVPDRFSGSKSGTSASLAITGLQAEDEADYYCQSHDLGAHVWVFGGGTKLTVLG | 8.3 nM | 100% | 0.4 µg/mL | 5.4 nM | 100% | 6.3 nM | 100% | 
3 | Fab #3 comprising a modified heavy chain constant region (Fab, V domains shown) VH: QVQLVESGGGLVKPGGSLRLSCAASGFSFGDYYVSWIRQAPGKGLEWVSAIGGSGSAVQYAESVKGRFTISRDNAKNSLYLQMNSLRAEDTAVYYCARHYREFRWHYYYFDYWGQGTLVTVSS VL: QSVLTQPPSVSGAPGQRVTISCTGSSSNIGAGYDVHWYQQLPGTAPKLLIYGNSNRPSGVPDRFSGSKSGTSASLAITGLQAEDEADYYCQSHDLGAHVWVFGGGTKLTVLG | 8.7 nM | 100% | 0.4 µg/mL | 5.6 nM | 99% | 6.3 nM | 99% | 0.5 µg/mL
4 | Fab #4 comprising a modified heavy chain constant region (Fab, V domains shown) VH: QVQLVQSGAEVKKPGASVKVSCKASGGAFTSSYMHWVRQAPGQGLEWMGIIEPTGASTLYAQRFQGRVTMTRDTSTSTVYMELSSLRSEDTAVYYCARTGIALPLGFDLWGQGTLVTVSS VL: QSVLTQPPSVSAAPGQKVTISCSGSSSNIGNNYVSWYQQLPGTAPKLLIYDNNKRPSGIPDRFSGSKSGTSATLGITGLQTEDEADYYCAAWSTRFRWVFGGGTKLTVLG | 13.2 nM | 47% | 0.5 µg/mL | 10.6 nM | 82% | 8.2 nM | 86% | 0.6 µg/mL
5 | Fab #1 comprising a modified heavy chain constant region (Fab, V domains shown) VH: QVQLVQSGAEVKKPGASVKVSCKASGYTFTSHYMHWVRQAPGQGLEWMGLIEPSEGETEYAQRFQGRVTMTRDTSTSTVYMELSSLRSEDTAVYYCARDSSRSYPLGFDIWGQGTLVTVSS VL: QSVLTQPPSVSAAPGQKVTISCSGSSSNIGNNYVSWYQQLPGTAPKLLIYDNNKRPSGIPDRFSGSKSGTSATLGITGLQTEDEADYYCAAWDFRSSRWVFGGGTKLTVLG | 10.9 nM | 63% | 0.2 µg/mL | 8.2 nM | 79% | 11 nM | 89% | 
